Changes are numbered by the printed parent chain. Numbers in names are those of the source.
B1: H1H21227N-N297Q: "modified versions of 21227N (H1H21227N-N297Q and H1H21227N-N297D)"; anti-MSR1 antibody "with a N297Q single point mutation" (antibody, V domains shown)
VH: QVQLVQSGAEVKKPGASVKVSCKVSGYTLTELSIHWVRQVPGKGLEWMGGFDPEEGETIFAQEFRDRVTLTEDTSPDTAYMELSSLKSEDAAVYYCTTPRYCNNGICYDYWGQGTLVTVSS
VL: DIQMTQSPSSLSASVGDRVTITCRASQSISNYLNWYQQKPGKAPKLLIYTASSLQSGVPSRFSGSGSGTDFTLTISSLQTEDFATYYCQQSYSNFPITFGQGTRLEIKR
B2: H1H21227N: "anti-MSR1 antibodies ... (21227N, 21231N, 21234N) were produced with the original human Fcγ portion"; "H1H" = human IgG1 Fc (antibody, V domains shown)
VH: B1 VH
VL: B1 VL
modifications: human IgG1 Fc
notes: "anti-MSR1 antibodies ; (21227N, 21231N, 21234N) were produced with the original human Fcγ portion"; "H1H" = human IgG1 Fc
B3: H1H21231N-N297Q: modified version of "21231N (H1H21231N-N297Q) anti-MSR1 antibodies" with "a N297Q single point mutation" (antibody, V domains shown)
VH: EVQLVESGGGLVQPGGSLRLSCAASGFTFSDHYMDWVRQAPGKGLEWVGRTRNKANSHTTEYTASVTGRFTISRDDSRNSLYLQMNSLKTEDTAVYYCVRAGIIGTLFDYWGQGTLVTVSS
VL: B1 VL with S7F, N31S, Y32F, Y36F, L46F, T50A, T80P, N94S, F95P
B4: H1H21227N-N297D: "The 21227N antibody was also produced as a third version with a N297D mutation" (antibody, V domains shown)
VH: B1 VH
VL: B1 VL
B5: H1H21231N: "anti-MSR1 antibodies ... (21227N, 21231N, 21234N) were produced with the original human Fcγ portion"; "H1H" = human IgG1 Fc (antibody, V domains shown)
VH: B3 VH
VL: B1 VL with S7F, N31S, Y32F, Y36F, L46F, T50A, T80P, N94S, F95P
modifications: human IgG1 Fc
notes: as for B2
B6: H1H27729P-N297Q: anti-MSR1 antibody "made with an N297Q single point mutation in human Fcγ portion" (antibody, V domains shown)
VH: QVQLVESGGGLVKPGGSLRLSCAASGFIFSDYYMSWIRQAPGKGLEWVSYISSSGTTIYGDSVKGRFTMSRDNAKNSLYLQMNSLRAEDTAVYYCARNYALFDYWGQGTLVTVSS
VL: DIQMTQSPSSLSASVGDRVTITCQASQDISKYLNWYQQKPGKAPKLLIYYTSNLETGVPSRFSGSGSGTDFTFTISSLQPEDIATYYCHQSDYLPFTFGPGTKVDIKR

target: T1, Ac-LDL binding to His9-hMSR1 (Homo sapiens, UniProt P21757); assay: Competition sandwich ELISA, blocking of Ac-LDL binding; conditions: 50 pM Ac-LDL
T1 construct: human MSR1 extracellular domain expressed with a N-terminal nonahistidine tag; His9 (nonahistidine) (N); purchased R&D Systems 2708-MS
T1 sequence (P21757 77-451 limits assumed): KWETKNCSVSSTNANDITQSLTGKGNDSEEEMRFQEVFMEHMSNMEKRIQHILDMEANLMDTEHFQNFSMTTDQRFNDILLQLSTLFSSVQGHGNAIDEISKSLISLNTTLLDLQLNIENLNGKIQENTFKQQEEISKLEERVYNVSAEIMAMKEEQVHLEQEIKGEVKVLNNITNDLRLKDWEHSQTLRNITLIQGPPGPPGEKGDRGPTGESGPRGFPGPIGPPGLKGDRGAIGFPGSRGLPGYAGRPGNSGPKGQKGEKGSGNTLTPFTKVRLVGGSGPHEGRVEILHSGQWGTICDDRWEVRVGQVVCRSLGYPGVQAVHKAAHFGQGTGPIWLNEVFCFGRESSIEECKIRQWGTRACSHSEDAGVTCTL
Experimental: The ability of anti-MSR1 antibodies disclosed herein to block the binding of various ligands to human MSR1 was measured using three competition sandwich ELISA assays. The ligands used in the assays were: (1) acetylated LDL (Ac-LDL), (2) oxidized LDL (Ox-LDL), and (3) advanced glycation end-products of bovine serum albumin (AGE-BSA).
Anti-MSR1 antibodies or isotype control antibodies were serially diluted as appropriate for each tested ligand and added in duplicate for each serial dilution set to microtiter plates coated with His9-hMSR1. Buffer alone was also added to wells on each coat. […] This assay was conducted in four different assay runs.
Data analysis was performed using a sigmoidal dose-response model within Prism™ software (GraphPad). Percent blockade at maximum concentration of the antibody tested in each assay was calculated as an indicator of the ability of the antibodies to block the binding of Ac-LDL, Ox-LDL or biot-AGE-BSA to His9-hMSR1 on the plate relative to the baseline of the assay. In the calculation, binding signal of the same concentrations of Ac-LDL, Ox-LDL, or biot-AGE-BSA used for the assays in the absence of antibody was referenced as 100% binding or 0% blocking, while the baseline of the assay, defined as binding signal of the sample of buffer without MSR1 ligands or antibody, was referenced as 0% binding or 100% blocking. The maximum percent blockade at the highest concentration of antibody tested in each assay are reported for all antibodies.

Point of comparison: B2, “Anti-MSR1 antibody (100 nM) blocking of Ac-LDL binding to His9-hMSR1 % Blocking” value 105%. Against it:
- B1 — the same, 105%
- B3 — lower, −60%
- B4 — lower, 101%
- B5 — lower, −62%

target: T2, HEK293.Myc.hMSR1 cells (human MSR1) (Homo sapiens, UniProt P21757); assay: Electrochemiluminescence antibody binding assay on MSR1-expressing cells; type: cell-based; conditions: not given
T2 construct: expressed in transfected cells; host or cells: HEK293 (lentiviral transduction, hygromycin selection)
T2 sequence (P21757 1-451): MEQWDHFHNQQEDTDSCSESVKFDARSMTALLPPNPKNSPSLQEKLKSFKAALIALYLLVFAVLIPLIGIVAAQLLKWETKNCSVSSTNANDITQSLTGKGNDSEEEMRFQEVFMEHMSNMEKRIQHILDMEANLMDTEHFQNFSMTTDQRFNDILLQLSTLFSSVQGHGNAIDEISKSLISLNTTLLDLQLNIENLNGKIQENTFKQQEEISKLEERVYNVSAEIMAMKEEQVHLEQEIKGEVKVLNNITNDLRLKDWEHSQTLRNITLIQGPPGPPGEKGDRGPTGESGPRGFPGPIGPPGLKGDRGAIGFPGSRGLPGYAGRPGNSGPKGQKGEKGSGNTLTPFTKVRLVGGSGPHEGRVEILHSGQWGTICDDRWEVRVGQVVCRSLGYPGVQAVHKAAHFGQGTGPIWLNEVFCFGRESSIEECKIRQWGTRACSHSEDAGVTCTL

Point of comparison: B1, “Ratio of 11 nM Antibody Binding Signal (RLU) to isotype control, HEK293.Myc.hMSR1” value 37. Against it:
- B2 — the same, 37
- B4 — lower, 34
- B5 — higher, 61

target: T3, MSR1-mediated Dil-OxLDL uptake in HEK293.Myc.hMSR1 cells (Homo sapiens, UniProt P21757); assay: Ligand uptake assay, Dil-OxLDL; type: cell-based; conditions: 10 μg/mL Dil-OxLDL
T3 construct: expressed in transfected cells; host or cells: HEK293 (lentiviral transduction, hygromycin selection)
T3 sequence (P21757 1-451): T2 sequence (P21757 1-451)
Experimental: A bioassay was generated to assess the ability of the exemplary anti-MSR1 antibodies to regulate the uptake of certain MSR1 ligands.
Generation of MSR1-expressing cell lines for assay. […] The resulting cell line, referred to here as “HEK293.Myc.hMSR1”, was selected and maintained in DMEM containing 10% FIBS, NEAA, penicillin/streptomycin, L-glutamine, and 100 μg/mL hygromycin.
Ligand uptake assay. […] After 30 minutes, either oxidized or acetylated low-density lipoprotein (LDL) labeled with 1,1′dioctadecyl-3,3,3′,3′-tetramethylindocarbocyanine perchlorate (referred to as “Dil-OxLDL” or “Dil-AcLDL,” respectively) was added to the cells at a constant concentration of 10 μg/mL. […] Results were analyzed using nonlinear regression (4-parameter logistics) with the Prism 7 program to obtain EC50 and IC50 values. The percentage of inhibition was calculated with the Relative Fluorescent Unit (RFU) values by using the following equation: […]
In the equation, “RFUBaseline” is the fluorescence value from the cells treated with 10 μg/mL ligand without antibodies, “RFUInhibition” is the minimum fluorescence value with for a particular antibody with 10 μg/mL ligand, and “RFUBackground” is the fluorescence value from cells without any ligand or antibodies.

With B6 the “Dil-Oxidized LDL IC50” value was “no inhibition”.

With B6 the “maximum inhibition of Dil-OxLDL uptake” value was “no inhibition”.

same assay, conditions: 10 μg/mL Dil-OxLDL, read-out: Dil-Oxidized LDL IC50

Point of comparison: B2, IC50 2 nM. Against it:
- B1 — within 1.5-fold, 1.8 nM
- B5 — 1.8-fold higher, 3.6 nM

same assay, conditions: maximum inhibition, 10 μg/mL Dil-OxLDL

Point of comparison: B1, “Dil-Oxidized LDL % Inhibition” value 94%. Against it:
- B2 — lower, 89%
- B5 — lower, 78%

B6 was tested, and the “Dil-Oxidized LDL % Inhibition” value was “no inhibition”.

From patent publication US12497460B2, “Anti-MSR1 antibodies and methods of use thereof” (REGENERON PHARMACEUTICALS, INC., priority 2018, dated 2025)
